For assay [1], the target named is T1, Core_INNI-es_KKKE.
T1 chain: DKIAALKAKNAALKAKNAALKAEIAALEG
The assay can be described thus: two-hybrid library CCmax.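 Note: natural log of median RNA to DNA barcode read ratio; higher means stronger binding.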 The settings on record: mean of both orientations.

Assay [2] concerns the target T2, 4H1393-bH.
T2 chain: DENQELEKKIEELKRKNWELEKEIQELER
Briefly: two-hybrid library CCNG1.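 Note: natural log of median RNA to DNA barcode read ratio; higher means stronger binding.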

Assay [3] addresses T3, 4H3638-bH.
T3 chain: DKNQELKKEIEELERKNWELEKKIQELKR
Briefly: two-hybrid library CCNG1.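 Note: natural log of median RNA to DNA barcode read ratio; higher means stronger binding.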

Assay [4] concerns the target T4, 4H3613-bH.
T4 chain: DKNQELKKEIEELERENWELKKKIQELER
Briefly: two-hybrid library CCNG1.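 Note: natural log of median RNA to DNA barcode read ratio; higher means stronger binding.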

Assay [5] deals with T5, 4H3974-bH.
T5 chain: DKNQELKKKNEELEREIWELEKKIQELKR
Briefly: two-hybrid library CCNG1.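 Note: natural log of median RNA to DNA barcode read ratio; higher means stronger binding.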

For assay [6], the target named is T6, 4H1348-bH.
T6 chain: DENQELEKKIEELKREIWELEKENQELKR
Briefly: two-hybrid library CCNG1.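 Note: natural log of median RNA to DNA barcode read ratio; higher means stronger binding.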

In assay [7] the target is T7, 4H584-bH.
T7 chain: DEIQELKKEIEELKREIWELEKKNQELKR
Briefly: two-hybrid library CCNG1.

Assay [8] has as its target T8, 4H3817-bH.
T8 chain: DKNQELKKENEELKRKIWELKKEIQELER
Briefly: two-hybrid library CCNG1.

The target in assay [9] is T9, 4H1544-bH.
T9 chain: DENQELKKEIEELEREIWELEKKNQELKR
The assay can be described thus: two-hybrid library CCNG1.

Assay [10] concerns the target T10, 4H1804-bH.
T10 chain: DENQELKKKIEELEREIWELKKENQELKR
The assay can be described thus: two-hybrid library CCNG1.

The target of assay [11] is T11, 4H1359-bH.
T11 chain: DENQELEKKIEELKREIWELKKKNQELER
The assay can be described thus: two-hybrid library CCNG1.

The target in assay [12] is T12, 4H850-bH.
T12 chain: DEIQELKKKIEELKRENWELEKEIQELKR
Briefly: two-hybrid library CCNG1.

In assay [13] the target is T13, 4H1710-bH.
T13 chain: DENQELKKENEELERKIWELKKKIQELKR
Briefly: two-hybrid library CCNG1.

The target of assay [14] is T14, 4H1985-bH.
T14 chain: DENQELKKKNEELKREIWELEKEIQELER
The assay can be described thus: two-hybrid library CCNG1.

Assay [15] concerns the target T15, O8-bN.
T15 chain: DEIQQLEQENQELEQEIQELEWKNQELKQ
The assay can be described thus: two-hybrid library CCNG1.

The target in assay [16] is T16, 4H1338-bH.
T16 chain: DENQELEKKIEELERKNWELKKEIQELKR
Briefly: two-hybrid library CCNG1.

Assay [17] concerns the target T17, 4H570-bH.
T17 chain: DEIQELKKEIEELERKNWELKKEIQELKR
The assay can be described thus: two-hybrid library CCNG1.

In assay [18] the target is T18, 4H3129-bH.
T18 chain: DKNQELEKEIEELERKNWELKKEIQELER
Briefly: two-hybrid library CCNG1.

Assay [19] has as its target T19, 4H3414-bH.
T19 chain: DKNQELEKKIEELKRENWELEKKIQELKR
Briefly: two-hybrid library CCNG1.

The target in assay [20] is T20, 4H1899-bH.
T20 chain: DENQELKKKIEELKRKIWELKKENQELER
The assay can be described thus: two-hybrid library CCNG1.

The target of assay [21] is T21, 4H3858-bH.
T21 chain: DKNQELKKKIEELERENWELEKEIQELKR
The assay can be described thus: two-hybrid library CCNG1.

In assay [22] the target is T22, 4H1222-bH.
T22 chain: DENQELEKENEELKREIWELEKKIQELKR
The assay can be described thus: two-hybrid library CCNG1.

For assay [23], the target named is T23, 4H3628-bH.
T23 chain: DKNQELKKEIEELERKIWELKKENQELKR
Briefly: two-hybrid library CCNG1.

The target of assay [24] is T24, 4H619-bH.
T24 chain: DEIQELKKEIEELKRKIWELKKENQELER
Briefly: two-hybrid library CCNG1.

The target in assay [25] is T25, 4H1373-bH.
T25 chain: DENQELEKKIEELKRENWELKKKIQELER
The assay can be described thus: two-hybrid library CCNG1.

The target of assay [26] is T26, 4H741-bH.
T26 chain: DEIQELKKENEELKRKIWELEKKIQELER
The assay can be described thus: two-hybrid library CCNG1.

The target in assay [27] is T27, 4H1629-bH.
T27 chain: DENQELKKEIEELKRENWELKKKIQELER
The assay can be described thus: two-hybrid library CCNG1.

The target in assay [28] is T28, 4H3631-bH.
T28 chain: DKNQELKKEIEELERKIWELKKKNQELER
Briefly: two-hybrid library CCNG1.

For assay [29], the target named is T29, P8A-bN.
T29 chain: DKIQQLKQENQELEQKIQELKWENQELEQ
The assay can be described thus: two-hybrid library CCNG1.

The target of assay [30] is T30, 4H906-bH.
T30 chain: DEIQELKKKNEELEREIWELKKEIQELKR
Briefly: two-hybrid library CCNG1.

Assay [31] concerns the target T31, 4H3172-bH.
T31 chain: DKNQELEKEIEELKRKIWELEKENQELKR
The assay can be described thus: two-hybrid library CCNG1.

Assay [32] addresses T32, P5bH1.
T32 chain: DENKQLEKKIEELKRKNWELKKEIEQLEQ
Briefly: two-hybrid library CCNG1.

Assay [33] concerns the target T33, 4H3189-bH.
T33 chain: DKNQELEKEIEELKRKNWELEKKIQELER
Briefly: two-hybrid library CCNG1.

Assay [34] concerns the target T34, 4H1449-bH.
T34 chain: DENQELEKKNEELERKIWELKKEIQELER
Briefly: two-hybrid library CCNG1.

Assay [35] addresses T35, Core_IINN-es_KEKE.
T35 chain: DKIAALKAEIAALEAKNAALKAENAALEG
The assay can be described thus: two-hybrid library CCmax. As to conditions: mean of both orientations.

The target of assay [36] is T36, O7-bS.
T36 chain: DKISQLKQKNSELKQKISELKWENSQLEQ
Briefly: two-hybrid library CCNG1.

In assay [37] the target is T37, O3-bS.
T37 chain: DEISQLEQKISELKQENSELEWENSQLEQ
The assay can be described thus: two-hybrid library CCNG1.

Assay [38] addresses T38, O13-bS.
T38 chain: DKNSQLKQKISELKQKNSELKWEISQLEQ
Briefly: two-hybrid library CCNG1.

The target of assay [39] is T39, O2-bS.
T39 chain: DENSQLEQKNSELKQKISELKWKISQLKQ
Briefly: two-hybrid library CCNG1.

Assay [40] has as its target T40, O14-bS.
T40 chain: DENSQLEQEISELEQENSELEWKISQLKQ
The assay can be described thus: two-hybrid library CCNG1.

Assay [41] concerns the target T41, O4-bS.
T41 chain: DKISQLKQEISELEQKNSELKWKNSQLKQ
The assay can be described thus: two-hybrid library CCNG1.

For assay [42], the target named is T42, O12-bS.
T42 chain: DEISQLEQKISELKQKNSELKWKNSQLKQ
The assay can be described thus: two-hybrid library CCNG1.

The target in assay [43] is T43, O5-bS.
T43 chain: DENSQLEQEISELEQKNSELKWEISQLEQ
Briefly: two-hybrid library CCNG1.

Assay [44] addresses T44, O16-bS.
T44 chain: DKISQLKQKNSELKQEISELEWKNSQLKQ
The assay can be described thus: two-hybrid library CCNG1.

The target in assay [45] is T45, O10-bS.
T45 chain: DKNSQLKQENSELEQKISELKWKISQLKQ
The assay can be described thus: two-hybrid library CCNG1.

Assay [46] deals with T46, O15-bS.
T46 chain: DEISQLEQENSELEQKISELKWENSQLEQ
Briefly: two-hybrid library CCNG1.

The target in assay [47] is T47, O6-bS.
T47 chain: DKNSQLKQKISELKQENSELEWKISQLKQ
The assay can be described thus: two-hybrid library CCNG1.

For assay [48], the target named is T48, O8-bS.
T48 chain: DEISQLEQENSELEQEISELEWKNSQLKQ
Briefly: two-hybrid library CCNG1.

The target in assay [49] is T49, O11-bS.
T49 chain: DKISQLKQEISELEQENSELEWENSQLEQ
Briefly: two-hybrid library CCNG1.

Assay [50] deals with T50, O1-bS.
T50 chain: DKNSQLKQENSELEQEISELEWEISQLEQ
The assay can be described thus: two-hybrid library CCNG1.

The target in assay [51] is T51, O9-bS.
T51 chain: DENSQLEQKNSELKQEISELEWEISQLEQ
The assay can be described thus: two-hybrid library CCNG1.

In assay [52] the target is T52, Core_IIIN-es_KEEE.
T52 chain: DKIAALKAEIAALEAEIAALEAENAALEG
Briefly: two-hybrid library CCmax. The settings on record: mean of both orientations.

The target in assay [53] is T53, Core_NINI-es_KEKE.
T53 chain: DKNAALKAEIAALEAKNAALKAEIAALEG
Briefly: two-hybrid library CCmax. As to conditions: mean of both orientations.

In assay [54] the target is T54, Core_IIIN-es_KEKE.
T54 chain: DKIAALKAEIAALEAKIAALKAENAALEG
Briefly: two-hybrid library CCmax.

The target in assay [55] is T55, Core_IIII-es_KEEE.
T55 chain: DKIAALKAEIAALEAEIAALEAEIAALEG
The assay can be described thus: two-hybrid library CCmax. As to conditions: mean of both orientations.

In assay [56] the target is T56, Core_NINI-es_KEEE.
T56 chain: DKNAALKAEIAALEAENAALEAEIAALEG
Briefly: two-hybrid library CCmax. The settings on record: mean of both orientations.

DEIAALEAENAALEAENAALEAKIAALKG [Core_INNI-es_EEEK] registered an interaction score in assay [1] of 2.15.
Consider DENQELEKENEELKREIWELEKKIQELKR [4H1222-bH], for which the interaction score in assay [2] was -0.624; in assay [3], -0.0664; in assay [4] it was -1.34; in assay [5], 1.38; in assay [6], -0.0221; in assay [7], 0.714. Moreover, the interaction score in assay [8] was 1.69; in assay [9], -2.53; in assay [10], 0.345; in assay [11], 0.083; in assay [12], 0.372; in assay [13] it was 2.16. Besides, the interaction score is 1.24 in [14]; -2.96 in assay [15]; 0.196 in assay [16]; 0.693 in [17]; 0.793 in assay [18]; 0.0236 in [19]. The interaction score in assay [20] was 0.852; in assay [21], -0.605; in [22] it was 0.735; in [23] it was 0.758; in assay [24], -1.4; in assay [25], -0.384. Besides, the interaction score in assay [26] is -2.48; in assay [27], -0.0755; in assay [28], 0.426; in assay [29], 2.04; in assay [30] it was -0.362; in assay [31], -0.665. For the same molecule, the figures for the interaction score in assay [32], in [33] and in assay [34] were 0.361, -1.2 and 1.19, respectively.
In [35], DEIAALEAKIAALKAENAALEAKNAALKG [Core_IINN-es_EKEK] gave an interaction score of 2.27.
As to DKNSQLKQENSELEQEISELEWEISQLEQ [O1-bS], the interaction score was -1.5 in [36]; -0.395 in assay [37]; -1.7 in assay [38]; 2.08 in assay [39]; -0.387 in [40]; -1.85 in [41]. Moreover, the interaction score in assay [42] is -0.754; in assay [43], -2; in assay [44], -1.87; in [45], -1.15; in assay [46], -0.914; in assay [47], -0.716. Further, the interaction score was -0.794 in assay [48], -0.763 in [49], -1.37 in assay [50] and -1.23 in assay [51].
The molecule DEIAALEAKIAALKAKIAALKAKNAALKG [Core_IIIN-es_EKKK] returned an interaction score in assay [52] of 2.06.
DENAALEAKIAALKAENAALEAKIAALKG [Core_NINI-es_EKEK] displayed an interaction score in [53] of 1.98.
DEIAALEAKIAALKAEIAALEAKNAALKG [Core_IIIN-es_EKEK]: the interaction score in [54] amounted to 2.11.
On to DEIAALEAKIAALKAKIAALKAKIAALKG [Core_IIII-es_EKKK], for which, in [55], the interaction score is 1.95.
In turn, DENAALEAKIAALKAKNAALKAKIAALKG [Core_NINI-es_EKKK] showed an interaction score in assay [56] of 2.35.
